For the assay, the target named is CD11b/CD18 receptor on J774A.1 murine monocytes/macrophages (murine) (UniProt P05555). As to the kind of experiment: cell-based or functional assay.

On to “CyaA/233OVA/K860R/AC- (from UniProt J7QLC0 1-1706)”, for which the Lysis of J774A.1 cells (% of AC-) was 72 % of AC-.

The values are drawn from patent US9222143.
